From patent CN116693678A
Where a chain is given by its changes, count along the chain named.

B1: Anti-MP-11F5mut1 (antibody, mouse IgG1, kappa, V domains shown)
VH: QVQLQQSGPELVKPGALVKISCKASGYTFTSFDINWVKQRPGQGLEWIGYIYPGDGSTKYNEKFKGKATLTADKSSSTAYMQFSSLTSENSAVYFCTRKGGWGAGHSAMDYWGQGTSVTVSS
VL: DIQMTQTTSSLSASLGDRVTISCRASQAIGNYLNWYQQRPDGTVKLLIYYTSRKNSGAPSRFSGSGSGTDYSITISNLDQEDIATYFCQQGYTTPYTFGGGTKLEIKR
B2: Anti-MP-11F5mut5 (antibody, mouse IgG1, kappa, V domains shown)
VH: B1 VH
VL: B1 VL with G30S, I73L, L78I
B3: Anti-MP-11F5mut8 (antibody, mouse IgG1, kappa, V domains shown)
VH: B1 VH with N90D
VL: B1 VL with G30S, L33I, I73L, L78I
B4: Anti-MP-11F5mut7 (antibody, mouse IgG1, kappa, V domains shown)
VH: B1 VH
VL: B1 VL with G30S, L33I, I73L, L78I
B5: Anti-MP-11F5mut4 (antibody, mouse IgG1, kappa, V domains shown)
VH: B1 VH
VL: B1 VL with G30S, L33I, I73L
B6: Anti-MP-11F5mut6 (antibody, mouse IgG1, kappa, V domains shown)
VH: B1 VH with N90D
VL: B1 VL with G30S, L33I, I73L

Columns and labels:
[1] = target: 肺炎支原体天然抗原(购自Microbix) (Mycoplasma pneumoniae); experiment: indirect ELISA on coated antigen (2 ug/ml), antibody 0.15 ng/ml
[2] = target: 肺炎支原体天然抗原(购自Microbix) (Mycoplasma pneumoniae); experiment: indirect ELISA on coated antigen (2 ug/ml), antibody 0.46 ng/ml
[3] = target: 肺炎支原体天然抗原(购自Microbix) (Mycoplasma pneumoniae); experiment: indirect ELISA on coated antigen (2 ug/ml), antibody 1.37 ng/ml
[4] = target: 肺炎支原体天然抗原(购自Microbix) (Mycoplasma pneumoniae); experiment: indirect ELISA on coated antigen (2 ug/ml), antibody 4.12 ng/ml
[5] = target: 肺炎支原体天然抗原(购自Microbix) (Mycoplasma pneumoniae); experiment: indirect ELISA on coated antigen (2 ug/ml), antibody 12.35 ng/ml
[6] = target: 肺炎支原体天然抗原(购自Microbix) (Mycoplasma pneumoniae); experiment: indirect ELISA on coated antigen (2 ug/ml), antibody 0 ng/ml (blank well)

Molecule | OD值 (450nm, 参考630nm) [1] [OD] | OD值 (450nm, 参考630nm) [2] [OD] | OD值 (450nm, 参考630nm) [3] [OD] | OD值 (450nm, 参考630nm) [4] [OD] | OD值 (450nm, 参考630nm) [5] [OD] | OD值 (450nm, 参考630nm) [6] [OD]
对照 (antibody) | 0.068 | 0.111 | 0.208 | 0.499 | 1.21 | 0.015
B1 | 0.156 | 0.201 | 0.295 | 0.815 | 1.89 | 0.038
B2 | 0.163 | 0.241 | 0.316 | 0.837 | 2.02 | 0.038
B3 | 0.489 | 0.56 | 1.27 | 1.64 | 1.93 | 0.034
B4 | 0.365 | 0.4 | 0.643 | 1.51 | 1.91 | 0.032
B5 | 0.374 | 0.49 | 1.26 | 1.92 | 1.96 | 0.042
B6 | 0.174 | 0.276 | 0.445 | 0.85 | 1.92 | 0.063
